Test results: PMC1885668
Residue numbers refer to the chain shown, from its start.

How the values were obtained:
TREX2BD = target: T1, TREX2BD (human, UniProt Q9BQ50 1-236, R163A;R165A;R167A); test: SPR
T1 sequence: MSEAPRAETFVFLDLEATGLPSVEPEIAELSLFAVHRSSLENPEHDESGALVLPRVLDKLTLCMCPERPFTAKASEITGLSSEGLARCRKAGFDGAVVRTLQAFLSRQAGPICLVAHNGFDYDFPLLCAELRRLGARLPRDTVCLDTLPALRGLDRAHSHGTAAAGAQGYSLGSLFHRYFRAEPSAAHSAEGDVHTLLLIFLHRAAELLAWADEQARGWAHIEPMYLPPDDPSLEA

TREX2DD = target: T2, TREX2DD (human, UniProt Q9BQ50 1-236, E29A;K59A;D94A;R107A;E191A); test: SPR
T2 sequence: T1 sequence with E29A, K59A, D94A, R107A, A163R, A165R, A167R, E191A

Does GTATGAGCTGCAGTTCCTCAGCAT (ssDNA) [Biotin-mTX1-322 (24-mer)] bind (TREX2BD)?
Result: no binding

Does GTATGAGCTGCAGTTCCTCAGCAT (ssDNA) [Biotin-mTX1-322 (24-mer)] bind (TREX2DD)?
Result: no binding
